B1: Lys-plasmin (protein)
chain: KVYLSECKTGNGKNYRGTMSKTKNGITCQKWSSTSPHRPRFSPATHPSEGLEENYCRNPDNDPQGPWCYTTDPEKRYDYCDILECEEECMHCSGENYDGKISKTMSGLECQAWDSQSPHAHGYIPSKFPNKNLKKNYCRNPDRELRPWCFTTDPNKRWELCDIPRCTTPPPSSGPTYQCLKGTGENYRGNVAVTVSGHTCQHWSAQTPHTHNRTPENFPCKNLDENYCRNPDGKRAPWCHTTNSQVRWEYCKIPSCDSSPVSTEQLAPTAPPELTPVVQDCYHGDGQSYRGTSSTTTTGKKCQSWSSMTPHRHQKTPENYPNAGLTMNYCRNPDADKGPWCFTTDPSVRWEYCNLKKCSGTEASVVAPPPVVLLPDVETPSEEDCMFGNGKGYRGKRATTVTGTPCQDWAAQEPHRHSIFTPETNPRAGLEKNYCRNPDGDVGGPWCYTTNPRKLYDYCDVPQCAAPSFDCGKPQVEPKKCPGRVVGGCVAHPHSWPWQVSLRTRFGMHFCGGTLISPEWVLTAAHCLEKSPRPSSYKVILGAHQEVNLEPHVQEIEVSRLFLEPTRKDIALLKLSSPAVITDKVIPACLPSPNYVVADRTECFITGWGETQGTFGAGLLKEAQLPVIENKVCNRYEFLNGRVQSTELCAGHLAGGTDSCQGDSGGPLVCFEKDKYILQGVTSWGLGCARPNKPGVYVRVSRFVTWIEGVMRNN
B2: matriptase protease domain (protein)
chain: VVGGTDADEGEWPWQVSLHALGQGHICGASLISPNWLVSAAHCYIDDRGFRYSDPTQWTAFLGLHDQSQRSAPGVQERRLKRIISHPFFNDFTFDYDIALLELEKPAEYSSMVRPICLPDASHVFPAGKAIWVTGWGHTQYGGTGALILQKGEIRVINQTTCENLLPQQITPRMMCVGFLSGGVDSCQGDSGGPLSSVEADGRIFQAGVVSWGDGCAQRNKPGVYTRLPLFRDWIKENTGV

Target: pro-uPA (pro-urokinase-type plasminogen activator, single-chain zymogen form of uPA), P00749

Row | Protein | cleavage of pro-uPA (SDS-PAGE, 1.5 uM pro-uPA, 15 nM plasmin) | k (first-order rate constant of pro-uPA activation) [min⁻¹] | kcat/Km of pro-uPA activation [M⁻¹ s⁻¹]
1 | B1 | cleavage of pro-uPA by plasmin generated identical fragments and with a time-course similar to hepsin | 0.0815 | 453000
2 | B2 |  | 0.0142 | 79000
